Test results from patent US20100137208A1, “INTRATUMORALLY ADMINISTERED LACTOFERRIN IN THE TREATMENT OF MALIGNANTNEOPLASMS AND OTHER HYPERPROLIFERATIVE DISEASES” (priority 2002, published 2010).
Several values for one entry are separate records, joined by “and”; a condition that tells them apart may be missing. Equal entries are not always repeated. Marks after values point to notes of the source that are not given here.

Key:
[1] = system: Human squamous cell carcinoma (O12); experiment: Inhibition of tumor growth by rhLF in O12 tumor model in mice; format: in vivo, athymic nude mice
Experimental: Human squamous cell carcinoma (O12) was used. The cells were injected into the right flank of athymic nude mice. rhLF was administered either intratumorally (49 animals, 7 doses ranging from 0.05 μg to 125 μg per dose), intravenously (7 animals, 125 μg/dose) or orally (7 animals 20 mg/dose). Control animals were treated with only the vehicle; no rhLF was administered to the control animals. rhLF was administered twice a day for either five days (intravenous group) or eight days (all other groups) starting 11 days after inoculation with tumor cells to allow formation of established tumors.
The efficacy of treatment was evaluated by measuring the solid tumor size during and at the end of the experiment; the body weights were also determined at the time of tumor measurements.

circulating lymphocytes = experiment: Circulating lymphocytes following intratumoral rhLF in tumor-bearing mice; format: in vivo, C3H/HeJ mice
Experimental: Normal C3H/HeJ mice were implanted with one of two mouse tumors following the methodology described in Example 17. Tumors used were SCCVII and RIF mouse tumor cell lines. Following establishment of the tumors in the mice, tumors were injected intratumorally daily for 4 days with 250 or 500 μg rhLF per dose or with vehicle control. Twenty four hours following the last intratumoral injection, animals were sacrificed and the blood examined for lymphocyte populations. The number of circulating lymphocytes were increased by 34% to 56% relative to the placebo treated control animals (Table 14).

YAC targets = experiment: NK activity ex vivo after oral rhLF (LDH release test); format: in vivo, Balb/c naïve mice; settings: for % Cytotoxicity Final (NK activity): oral 300 mg/kg/day 3 days, spleen NK cells day 4
Experimental: Balb/c naïve mice were treated orally with rhLF or placebo once a day for 3 days (see Table 4).
(§1) On day 4, mice were sacrificed and spleens were collected. NK cells were separated using a magnetic bead cell sorting assay (MACS anti-NK-DX5) and counted. Cells were then tested in vitro for NK-activity against YAC targets using a lactate dehydrogenase (LDH) release test.
as §1, with “Balb/c naïve mice were treated orally with rhLF or placebo once a” for “On”, “for 3 days. One day later (day 4),” for “4,”, “spleens” for “spleens were”

[2] = system: murine squamous carcinoma cell line (SCCVII); experiment: SCCVII floor-of-mouth tumor growth, oral rhLF and/or radiotherapy; format: in vivo, C3H mice
Experimental: A murine squamous carcinoma cell line (SCCVII) was injected into the floor of mouth through the neck skin of immunocompetent C3H mice (Day 0). […] Tumors were measured in three dimensions with calipers.
Tumor-bearing mice were randomized into six groups receiving rhLF (200 mg/Kg) and/or radiotherapy as described below. RhLF (4 mg; 200 mg/kg) was administered by oral gavage once daily for 8 days on days 5 through 12. Radiotherapy was administered as single dose of 2 Gray given at the beginning (day 5) or at during (day 8) rhLF-therapy. Animals were sacrificed on day 14 post-treatment and the residual tumor masses were measured and processed for later additional analyses.

IL-18 = IL-18 levels in small intestine and serum after oral rhLF or bLF (ELISA); format: in vivo, mice; settings: for IL-18 level, Intestinal Extract / IL-18 level, Serum: 24 h after last dose
Experimental: Recombinant human lactoferrin and bovine lactoferrin were orally administered to mice, and the production of IL-18 in the small intestine was measured.
Mice were treated for three days daily with 65 mg/kg/day of rhLF, 300 mg/kg/day of rhLF or 300 mg/kg/day of bLF. For a control, mice were only administered the pharmaceutical carrier. Twenty-four hours following administration of the LF or control for 3 days, animals were weighed and blood and serum were collected. Serum was used for cytokine ELISA assays.
Also, at these time points, animals were sacrificed and the small intestinal tissue was removed for further analysis. Small intestinal epithelium was homogenized using a lysis buffer consisting of PBS, 1% Nonidet P-40, 0.5% sodium deoxycholate, and 0.1% sodium dodecyl sulphate containing 10 μg/ml PhenylMetheylsulfonyl fluoride. Homogenate was centrifuged at 15,000 rpm for 10 minutes and the supernatant stored at −80 C till it was tested for IL-18 levels.

GM-CSF = GM-CSF production in small intestine after oral rhLF (ELISA); format: in vivo, mice; settings: oral 300 mg/kg/day for three days
Experimental: Recombinant human lactoferrin or placebo were orally administered to mice, and the production of GM-CSF in the small intestine was measured.
Mice (5 animals per group) were treated for three days daily with 300 mg/kg/day of rhLF. For a control, mice were only administered the pharmaceutical carrier. Twenty-four hours following administration of the LF or placebo for 3 days, animals were and the small intestinal tissue was removed for further analysis. Small intestinal epithelium was homogenized using a lysis buffer consisting of PBS, 1% Nonidet P-40, 0.5% sodium deoxycholate, and 0.1% sodium dodecyl sulphate containing 10 μg/ml PhenylMetheylsulfonyl fluoride. Homogenate was centrifuged at 15,000 rpm for 10 minutes and the supernatant stored at −80 C till it was tested for GM-CSF levels using an ELISA kit.

[3] = system: O12 human oropharyngeal squamous cell carcinoma tumor cells; experiment: Intratumoral rhLF in O12 tumors in nude mice; format: in vivo, athymic nude mice
Experimental: O12 human oropharyngeal squamous cell carcinoma tumor cells were injected to the right flank of athymic nude mice. Recombinant human lactoferrin and vehicle controls were dosed via intratumoral injection. Each animal was administered different concentrations of rhLF in 50 μL doses consisting of four separate injections of approximately 12.5 μL of the dose, at different directions and angles (approximately S/N/E/W) to ensure that the dose was distributed evenly throughout the tumor (fanning).
In this study, rhLF was administered directly into the tumor. Each animal was tracked daily for tumor growth by external caliper measurements of the protruding tumor.

[4] = blood, 24 h after 4 daily intratumoral doses of 250 or 500 μg, SCCVII or RIF tumors
[5] = oral 65 mg/kg/day for three days
[6] = oral 65 mg/kg/day rhLF versus 300 mg/kg bLF
[7] = oral 300 mg/kg/day for three days
[8] = oral 300 mg/kg/day rhLF versus 300 mg/kg bLF

B1: rhLF: recombinant human lactoferrin, a single chain metal binding glycoprotein (protein, UniProt P02788 20-710, looked up)
Lactotransferrin: GRRRSVQWCAVSQPEATKCFQWQRNMRKVRGPPVSCIKRDSPIQCIQAIAENRADAVTLDGGFIYEAGLAPYKLRPVAAEVYGTERQPRTHYYAVAVVKKGGSFQLNELQGLKSCHTGLRRTAGWNVPIGTLRPFLNWTGPPEPIEAAVARFFSASCVPGADKGQFPNLCRLCAGTGENKCAFSSQEPYFSYSGAFKCLRDGAGDVAFIRESTVFEDLSDEAERDEYELLCPDNTRKPVDKFKDCHLARVPSHAVVARSVNGKEDAIWNLLRQAQEKFGKDKSPKFQLFGSPSGQKDLLFKDSAIGFSRVPPRIDSGLYLGSGYFTAIQNLRKSEEEVAARRARVVWCAVGEQELRKCNQWSGLSEGSVTCSSASTTEDCIALVLKGEADAMSLDGGYVYTAGKCGLVPVLAENYKSQQSSDPDPNCVDRPVEGYLAVAVVRRSDTSLTWNSVKGKKSCHTAVDRTAGWNIPMGLLFNQTGSCKFDEYFSQSCAPGSDPRSNLCALCIGDEQGENKCVPNSNERYYGYTGAFRCLAENAGDVAFVKDVTVLQNTDGNNNEAWAKDLKLADFALLCLDGKRKPVTEARSCHLAMAPNHAVVSRMDKVERLKQVLLHQQAKFGRNGSDCPDKFCLFQSETKNLLFNDNTECLARLHGKTTYEKYLGPQYVAGITNLKKCSTSPLLEACEFLRK
In the case of B1, the “Inhibition Relative to Placebo (tumor growth)” value ([1]; Intratumoral, 0.05 μg to 125 μg per dose twice a day for eight days, N = 49, Day 19) is reported as 28%, the “Inhibition Relative to Placebo (tumor growth)” value ([1]; Intratumoral, 0.05 μg to 125 μg per dose twice a day for eight days, N = 49, Day 28) is reported as 46% and the “Inhibition Relative to Placebo (tumor growth)” value ([1]; Intravenous, 125 μg/dose twice a day for five days, N = 7, Day 19) is reported as 55%. The “Inhibition Relative to Placebo (tumor growth)” value ([1]; Intravenous, 125 μg/dose twice a day for five days, N = 7, Day 28) was 65%, the “Inhibition Relative to Placebo (tumor growth)” value ([1]; Oral, 20 mg/dose twice a day for eight days, N = 7, Day 19) was 76% and the “Inhibition Relative to Placebo (tumor growth)” value ([1]; Oral, 20 mg/dose twice a day for eight days, N = 7, Day 28) was 80%. The “reduced rates of tumor growth relative to the control” value ([1]; across intratumoral, intravenous and oral routes) was 46% to 80, the “increase in number of circulating lymphocytes relative to placebo” value (circulating lymphocytes; across CD3+, CD4+, CD8+ populations) was 34% to 56 and the “Number of Cells CD3+” value (circulating lymphocytes; [4]) was 3291. The “Number of Cells CD4+” value (circulating lymphocytes; [4]) was 2621, the “Number of Cells CD8+” value (circulating lymphocytes; [4]) was 1054 and the “Increase with rhLF, CD3+ cells” value (circulating lymphocytes; relative to placebo) was 56%. For the same molecule, the “Increase with rhLF, CD4+ cells” value (circulating lymphocytes; relative to placebo) was 46%, the “Increase with rhLF, CD8+ cells” value (circulating lymphocytes; relative to placebo) was 34% and the “relative increase of NK activity over placebo-treated animals” value (YAC targets; 30:1 E:T ratio) was 243%. For the same molecule, the “% Cytotoxicity Increased over ctrl” value (YAC targets; E:T ratio 3.7:1, versus placebo group) was 0%, the “% Cytotoxicity Increased over ctrl” value (YAC targets; E:T ratio 7.5:1, versus placebo group) was 0% and the “% Cytotoxicity Increased over ctrl” value (YAC targets; E:T ratio 15:1, versus placebo group) was 1.3%. For the same molecule, the “% Cytotoxicity Increased over ctrl” value (YAC targets; E:T ratio 30:1, versus placebo group) was 7** %, the “% Cytotoxicity Final (NK activity)” value (YAC targets; E:T ratio 3.7:1) was 0% and the “% Cytotoxicity Final (NK activity)” value (YAC targets; E:T ratio 7.5:1) was 0.44%. For the same molecule, the “% Cytotoxicity Final (NK activity)” value (YAC targets; E:T ratio 15:1) was 4.12%, the “% Cytotoxicity Final (NK activity)” value (YAC targets; E:T ratio 30:1, 300 mg/kg/day) was 10% and 9.81% and the “increase in TGI over monotherapy with radiation” value ([2]; both rhLF and radiation) was 15%. For the same molecule, the “increase in TGI over monotherapy with rhLF” value ([2]; both rhLF and radiation) was 28%, the “Inhibition Relative to Placebo” value ([2]; rhLF 200 mg/kg oral days 5-12 plus 2 Gray on day 5) was 68% and the “Inhibition Relative to Placebo” value ([2]; rhLF 200 mg/kg oral days 5-12 plus 2 Gray on day 8) was 66%. For the same molecule, the “Inhibition Relative to Placebo” value ([2]; rhLF 200 mg/kg oral days 5-12 plus 2 Gray, both radiation schedules pooled) was 67%, the “Inhibition Relative to Placebo” value ([2]; rhLF 200 mg/kg oral once daily days 5-12, no radiation) was 54% and the “IL-18 Intestinal Extract % Increase Over Control” value (IL-18; [5]) was 725%. For the same molecule, the “IL-18 Serum % Increase Over Control” value (IL-18; [5]) was 84%, the “IL-18 level, Intestinal Extract” value (IL-18; [5]) was 7,879 pg and the “IL-18 level, Serum” value (IL-18; [5]) was 259 pg. For the same molecule, the “IL-18 Intestinal Extract % Increase Over Blf” value (IL-18; [6]) was 75%, the “IL-18 Serum % Increase Over Blf” value (IL-18; [6]) was 94% and the “IL-18 Intestinal Extract % Increase Over Control” value (IL-18; [7]) was 775%. The “IL-18 Serum % Increase Over Control” value (IL-18; [7]) was 132%, the “IL-18 level, Intestinal Extract” value (IL-18; [7]) was 8,350 pg and the “IL-18 level, Serum” value (IL-18; [7]) was 328 pg. For the same molecule, the “IL-18 Intestinal Extract % Increase Over Blf” value (IL-18; [8]) was 85%, the “IL-18 Serum % Increase Over Blf” value (IL-18; [8]) was 145% and the “amounts of IL-18 in both the serum and in the intestinal extract” value (IL-18; oral, both doses (65 and 300 mg/kg/day)) was “significantly enhanced”. The “GM-CSF Increase over Placebo” value (GM-CSF) was 19.4% (p < 0.01), the “GM-CSF level, Mean (SEM)” value (GM-CSF; 5 animals per group) was 7.74 (0.19) pg and the “reduction of rates of tumor growth versus pooled placebo” value ([3]; Group A, single intratumoral dose (100-500 μg), day 11 after the administration) was 50%. The “reduction of rates of tumor growth versus pooled control group” value ([3]; Group C, intratumoral twice daily for 8 days (25-500 μg per dose)) was 56%.
